{"source": "patent US20160200763A1", "about": "(RAMOT AT TEL AVIV UNIVERSITY, published 2016)", "note": "Square brackets hold non-standard residues; d marks the D form. Ends that are not written are not given here. * marks the point of attachment. Myristoyl = CCCCCCCCCCCCCC(=O)*; pS = N[C@@H](COP(=O)(O)O)C(=O)O", "data": [{"target": "Bacterially expressed Purified GSK-3β Wild-Type (WT) (human, UniProt P49841 1-420)", "sequence (P49841 other isoform, or with tags, fused parts or gaps limits assumed)": "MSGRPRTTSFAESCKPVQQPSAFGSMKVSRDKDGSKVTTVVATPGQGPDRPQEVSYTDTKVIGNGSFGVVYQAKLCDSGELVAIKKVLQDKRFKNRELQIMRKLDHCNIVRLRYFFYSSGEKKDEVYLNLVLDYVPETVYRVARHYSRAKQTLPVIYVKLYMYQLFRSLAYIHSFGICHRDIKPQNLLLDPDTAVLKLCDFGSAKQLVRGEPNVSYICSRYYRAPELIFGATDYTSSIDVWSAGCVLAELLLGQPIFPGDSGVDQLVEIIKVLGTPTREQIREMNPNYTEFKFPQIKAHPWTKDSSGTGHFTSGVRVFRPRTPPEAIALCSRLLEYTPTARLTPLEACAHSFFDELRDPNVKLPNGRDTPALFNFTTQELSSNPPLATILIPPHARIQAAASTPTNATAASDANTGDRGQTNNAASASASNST", "assay": "cell-based or functional assay", "units": {"IC50, inhibition of GSK-3β phosphorylation of pIRS-1 (in vitro kinase assay)": "µM"}, "values": [{"binder": "KEAPPAPPQ[pS]P", "note": "[L803]", "IC50, inhibition of GSK-3β phosphorylation of pIRS-1 (in vitro kinase assay)": 200}, {"binder": "Myristoyl-GKEAPPAPPQ[pS]P", "note": "[L803-mts]", "IC50, inhibition of GSK-3β phosphorylation of pIRS-1 (in vitro kinase assay)": 40}, {"binder": "KEAPPSPPQ[pS]P", "note": "[L807]", "IC50, inhibition of GSK-3β phosphorylation of pIRS-1 (in vitro kinase assay)": 16}]}]}
